Data reported in US20120308564A1 (published 2012).

How the values were obtained:
[1] = molecular target: T1, human IL-18 (human, UniProt Q14116 37-193); assay: cell-based or functional assay
T1 sequence (looked up): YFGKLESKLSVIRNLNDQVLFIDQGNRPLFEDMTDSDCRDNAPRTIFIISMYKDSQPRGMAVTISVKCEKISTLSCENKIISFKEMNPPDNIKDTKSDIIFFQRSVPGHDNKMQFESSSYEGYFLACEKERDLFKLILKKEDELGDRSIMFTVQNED

[2] = molecular target: T1, human IL-18; assay: method not given; the same paragraph names BIAcore and FORTEbio as possible methods and mentions 25 C

- IL-6 gene expression in IL-18 stimulated ex-vivo human whole blood (Affymetrix microarray), IL-18 50 ng/ml + H1L2 1 ug/ml vs IL-18 alone [1]: 7 fold decrease
- IRS2 gene expression in IL-18 stimulated ex-vivo human whole blood (microarray), IL18+H1L2 vs IL18 alone [1]: 1.4 fold increase
- JAK2 gene expression in IL-18 stimulated ex-vivo human whole blood (microarray), IL18+H1L2 vs IL-18 alone [1]: 2.1 fold decrease
- MCP-1 gene expression in IL-18 stimulated ex-vivo human whole blood (microarray), IL18+H1L2 vs IL18 alone [1]: 2.6 fold decrease
- MCP-4 gene expression in IL-18 stimulated ex-vivo human whole blood (microarray), IL18+H1L2 vs IL18 alone [1]: 2.5 fold decrease
- PPAR gamma gene expression in IL-18 stimulated ex-vivo human whole blood (microarray), IL18+H1L2 vs IL18 alone [1]: 1.7 fold increase
- SOCS3 gene expression in IL-18 stimulated ex-vivo human whole blood (microarray), IL18+H1L2 vs IL-18 alone [1]: 1.9 fold decrease
- STAT3 gene expression in IL-18 stimulated ex-vivo human whole blood (microarray), IL18+H1L2 vs IL-18 alone [1]: 1.6 fold decrease
- Kd [2]: 0.0303 nM
B1: H1L2 (SEQ ID NO:7 and SEQ ID NO:11) (antibody, human IgG1, kappa, V domains shown)
VH: QVQLVQSGAEVKKPGASVKVSCKVSGEISTGYYFHWVRQAPGKGLEWMGRIDPEDDSTKYAERFKDRVTMTEDTSTDTAYMELSSLRSEDTAVYYCTTWRIYRDSSGRPFYVMDAWGQGTLVTVSS
VL: DIQMTQSPSSVSASVGDRVTITCLASEDIYTYLTWYQQKPGKAPKLLIYGANKLQDGVPSRFSGSGSGTDYTLTISSLQPEDFATYYCLQGSKFPLTFGQGTKLEIKR
notes: also called anti-IL-18 antibody H1L2
